Molecular target: the molecule itself
Test: small angle neutron scattering

B1: Chymotrypsin-truncated R67 dihydrofolate reductase (domain or fragment)
chain: VFPSNATFGMGDRVRKKSGAAWQGQIVGWYCTNLTPEGYAVESEAHPGSVQIYPVAALERIN
B1: binds.

B2: Full-length R67 dihydrofolate reductase (enzyme)
chain: MIRSSNEVSNPVAGNFVFPSNATFGMGDRVRKKSGAAWQGQIVGWYCTNLTPEGYAVESEAHPGSVQIYPVAALERIN
B2: binds.

— article PMC5678894 (Biochemistry, 2017)
